Legend:
Assay in all cases: SPR Biacore 3000, 37 C
[1] = biological target: T1, human HER4 Extracellular Domain (ECD) (human, UniProt Q15303 26-651)
T1 construct: also called Her4 ECD; HER4-ECD
T1 sequence: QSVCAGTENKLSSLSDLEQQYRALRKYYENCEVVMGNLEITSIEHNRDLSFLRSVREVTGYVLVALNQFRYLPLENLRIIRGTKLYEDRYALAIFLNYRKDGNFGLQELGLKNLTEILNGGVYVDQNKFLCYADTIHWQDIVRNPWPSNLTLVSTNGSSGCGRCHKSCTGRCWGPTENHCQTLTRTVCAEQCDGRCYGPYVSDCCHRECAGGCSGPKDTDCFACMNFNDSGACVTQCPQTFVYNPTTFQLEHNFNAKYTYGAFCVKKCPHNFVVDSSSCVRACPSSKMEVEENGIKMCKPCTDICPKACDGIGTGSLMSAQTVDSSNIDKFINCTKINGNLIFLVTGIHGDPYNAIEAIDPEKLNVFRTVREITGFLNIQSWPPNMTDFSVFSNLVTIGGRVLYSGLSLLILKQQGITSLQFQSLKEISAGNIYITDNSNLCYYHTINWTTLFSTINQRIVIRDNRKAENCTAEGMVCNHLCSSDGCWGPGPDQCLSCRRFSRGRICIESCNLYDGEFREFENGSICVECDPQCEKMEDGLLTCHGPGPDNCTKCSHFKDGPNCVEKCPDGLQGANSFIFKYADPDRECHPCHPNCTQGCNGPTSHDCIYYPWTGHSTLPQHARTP

HER4 ECD-HRG complex = biological target: T2, HER4 ECD-HRG complex (human, UniProt Q15303 26-651)
T2 construct: HER4 ECD preincubated with a 5-fold molar excess of Heregulin
T2 sequence 1: T1 sequence
T2 sequence 2: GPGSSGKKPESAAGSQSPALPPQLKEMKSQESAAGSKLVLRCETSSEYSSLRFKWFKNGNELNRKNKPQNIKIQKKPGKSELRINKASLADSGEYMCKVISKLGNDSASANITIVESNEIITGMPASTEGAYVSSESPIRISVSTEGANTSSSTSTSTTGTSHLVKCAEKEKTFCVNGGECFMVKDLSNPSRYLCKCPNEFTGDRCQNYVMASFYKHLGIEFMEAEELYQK

HER3 ECD-HRG complex = biological target: T3, HER3 ECD-HRG complex (human, UniProt P21860 20-643)
T3 construct: HER3 ECD preincubated with a 3- to 6-fold molar excess of Heregulin ('open' conformation); biotinylated Her3-ECD in the ribosome display; also called HER3-ECD/HRG1β

[2] = biological target: T4, human HER3 Extracellular Domain (ECD) (human, UniProt P21860 20-643)
T4 construct: human recombinant, 68 kDa; 'closed' conformation without ligand; also called Her3 ECD; Her-3 ECD

binding result [1]: no binding | Kd (HER4 ECD-HRG complex): 211 nM | MR (HER4 ECD-HRG complex): 0.8 | koff (HER4 ECD-HRG complex): 0.038 s⁻¹ | kon (HER4 ECD-HRG complex): 180000 M⁻¹ s⁻¹ | t/2diss (HER4 ECD-HRG complex): 0.3 min | Kd (HER3 ECD-HRG complex): 10 nM | MR (HER3 ECD-HRG complex): 0.8 | koff (HER3 ECD-HRG complex): 0.002 s⁻¹ | kon (HER3 ECD-HRG complex): 190000 M⁻¹ s⁻¹ | t/2diss (HER3 ECD-HRG complex): 6 min | Kd [2]: 23 nM | MR [2]: 0.7 | koff [2]: 0.00044 s⁻¹ | kon [2]: 19000 M⁻¹ s⁻¹ | t/2diss [2]: 26 min
B1: humanized variant VH-A/VL-D of anti-HER3 antibody M-05-74 (antibody, V domains shown)
VH: QVQLVQSGAELKKPGASVKVSCRTSGYTLTDYWIHWVRQAPGQGLEWMGYINPYTGYTESNQKFKDRVAMTRDASINTAYMELTSLRSDDTAVYYCARPYYYGDYWGQGTLVTVSS
VL: EIVLTQSPATLSLSPGERATLSCSASSSVSYMHWFQQKPGQPPRLLIYSTSNLASGIPARFSGSGSGTDFTLTISSLEPEDFAVYYCQQRSSYPFTFGGGTKVEIK
notes: also called humanized DIB-74

Reference: US20170233490A1 (Hoffmann-La Roche, published 2017)
